Data taken from US20250206837A1 (ELIXIRON IMMUNOTHERAPEUTICS HONG KONG, published 2025).
“And” between values parts separate entries of the source, which are not always exact repeats. Equal entries are not always repeated.

B1: 117 (IgG1) (antibody)
heavy: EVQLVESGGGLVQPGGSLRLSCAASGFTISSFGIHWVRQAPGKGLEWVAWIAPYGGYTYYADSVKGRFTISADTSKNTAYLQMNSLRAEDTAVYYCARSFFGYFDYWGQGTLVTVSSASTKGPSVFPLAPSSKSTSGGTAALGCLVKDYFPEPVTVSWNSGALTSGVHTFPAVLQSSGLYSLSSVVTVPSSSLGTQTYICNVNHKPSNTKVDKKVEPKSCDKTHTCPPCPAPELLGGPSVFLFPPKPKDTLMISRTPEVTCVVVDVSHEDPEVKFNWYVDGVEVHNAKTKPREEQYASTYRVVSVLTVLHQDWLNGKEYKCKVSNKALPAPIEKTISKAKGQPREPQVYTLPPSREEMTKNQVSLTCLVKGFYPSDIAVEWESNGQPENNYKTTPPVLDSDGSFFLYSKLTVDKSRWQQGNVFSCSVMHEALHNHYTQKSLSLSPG
light: DIQMTQSPSSLSASVGDRVTITCRASQDVSNWVAWYQQKPGKAPKLLISYATSLYSGVPSRFSGSGSGTDFTLTISSLQPEDFATYYCQQHSNAPLTFGQGTKVEIKRTVAAPSVFIFPPSDEQLKSGTASVVCLLNNFYPREAKVQWKVDNALQSGNSQESVTEQDSKDSTYSLSSTLTLSKADYEKHKVYACEVTHQGLSSPVTKSFNRGEC
notes: Human IgG1-N297A, kappa
B2: 117_31A (IgG1) (antibody)
heavy: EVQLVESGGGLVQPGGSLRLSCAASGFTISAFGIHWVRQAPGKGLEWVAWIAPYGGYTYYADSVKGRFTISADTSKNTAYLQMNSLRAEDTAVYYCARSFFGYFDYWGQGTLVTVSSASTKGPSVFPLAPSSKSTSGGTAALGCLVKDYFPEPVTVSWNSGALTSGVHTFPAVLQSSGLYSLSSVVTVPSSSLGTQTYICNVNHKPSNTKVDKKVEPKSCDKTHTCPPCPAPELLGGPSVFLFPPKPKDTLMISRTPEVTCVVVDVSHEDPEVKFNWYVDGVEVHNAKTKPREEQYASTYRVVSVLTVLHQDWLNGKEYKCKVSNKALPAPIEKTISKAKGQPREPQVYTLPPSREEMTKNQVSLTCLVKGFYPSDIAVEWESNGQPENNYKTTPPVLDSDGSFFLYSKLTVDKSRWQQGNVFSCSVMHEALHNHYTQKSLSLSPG
light: DIQMTQSPSSLSASVGDRVTITCRASQDVSNWVAWYQQKPGKAPKLLISYATSLYSGVPSRFSGSGSGTDFTLTISSLQPEDFATYYCQQHSNAPLTFGQGTKVEIKRTVAAPSVFIFPPSDEQLKSGTASVVCLLNNFYPREAKVQWKVDNALQSGNSQESVTEQDSKDSTYSLSSTLTLSKADYEKHKVYACEVTHQGLSSPVTKSFNRGEC
B3: 117_54E (IgG1) (antibody, V domains shown)
VH: EVQLVESGGGLVQPGGSLRLSCAASGFTISSFGIHWVRQAPGKGLEWVAWIAPEGGYTYYADSVKGRFTISADTSKNTAYLQMNSLRAEDTAVYYCARSFFGYFDYWGQGTLVTVSS
VL: DIQMTQSPSSLSASVGDRVTITCRASQDVSNWVAWYQQKPGKAPKLLISYATSLYSGVPSRFSGSGSGTDFTLTISSLQPEDFATYYCQQHSNAPLTFGQGTKVEIKR
B4: 117_57D (IgG1) (antibody)
heavy: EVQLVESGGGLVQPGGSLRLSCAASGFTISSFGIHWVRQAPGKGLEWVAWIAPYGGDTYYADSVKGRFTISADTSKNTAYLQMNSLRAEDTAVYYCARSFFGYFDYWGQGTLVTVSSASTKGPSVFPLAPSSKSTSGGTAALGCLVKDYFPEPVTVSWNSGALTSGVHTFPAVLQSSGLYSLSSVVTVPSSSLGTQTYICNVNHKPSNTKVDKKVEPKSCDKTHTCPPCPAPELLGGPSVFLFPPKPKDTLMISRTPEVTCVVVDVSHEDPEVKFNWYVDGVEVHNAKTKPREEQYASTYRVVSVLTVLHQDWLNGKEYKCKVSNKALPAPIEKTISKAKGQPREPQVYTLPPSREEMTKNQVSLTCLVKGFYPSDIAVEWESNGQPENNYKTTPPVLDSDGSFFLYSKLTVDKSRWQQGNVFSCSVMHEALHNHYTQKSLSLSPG
light: DIQMTQSPSSLSASVGDRVTITCRASQDVSNWVAWYQQKPGKAPKLLISYATSLYSGVPSRFSGSGSGTDFTLTISSLQPEDFATYYCQQHSNAPLTFGQGTKVEIKRTVAAPSVFIFPPSDEQLKSGTASVVCLLNNFYPREAKVQWKVDNALQSGNSQESVTEQDSKDSTYSLSSTLTLSKADYEKHKVYACEVTHQGLSSPVTKSFNRGEC
B5: 117_57E (IgG1) (antibody)
heavy: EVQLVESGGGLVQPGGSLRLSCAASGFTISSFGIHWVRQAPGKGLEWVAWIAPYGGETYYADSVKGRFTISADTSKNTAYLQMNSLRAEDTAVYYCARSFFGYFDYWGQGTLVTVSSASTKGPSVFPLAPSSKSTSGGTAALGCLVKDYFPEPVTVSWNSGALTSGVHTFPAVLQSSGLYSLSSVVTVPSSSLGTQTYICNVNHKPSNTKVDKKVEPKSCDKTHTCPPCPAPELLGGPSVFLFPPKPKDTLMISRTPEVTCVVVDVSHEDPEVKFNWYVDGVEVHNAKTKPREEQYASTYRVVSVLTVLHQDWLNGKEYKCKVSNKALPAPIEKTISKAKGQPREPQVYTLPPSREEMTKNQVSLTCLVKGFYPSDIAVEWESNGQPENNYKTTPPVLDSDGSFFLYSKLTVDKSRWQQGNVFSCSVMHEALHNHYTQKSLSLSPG
light: DIQMTQSPSSLSASVGDRVTITCRASQDVSNWVAWYQQKPGKAPKLLISYATSLYSGVPSRFSGSGSGTDFTLTISSLQPEDFATYYCQQHSNAPLTFGQGTKVEIKRTVAAPSVFIFPPSDEQLKSGTASVVCLLNNFYPREAKVQWKVDNALQSGNSQESVTEQDSKDSTYSLSSTLTLSKADYEKHKVYACEVTHQGLSSPVTKSFNRGEC
B6: 117_57EE (IgG1) (antibody, V domains shown)
VH: EVQLVESGGGLVQPGGSLRLSCAASGFTISSFGIHWVRQAPGKGLEWVAWIAPYGGEEYYADSVKGRFTISADTSKNTAYLQMNSLRAEDTAVYYCARSFFGYFDYWGQGTLVTVSS
VL: DIQMTQSPSSLSASVGDRVTITCRASQDVSNWVAWYQQKPGKAPKLLISYATSLYSGVPSRFSGSGSGTDFTLTISSLQPEDFATYYCQQHSNAPLTFGQGTKVEIKR
B7: 117 (antibody, V domains shown)
VH: EVQLVESGGGLVQPGGSLRLSCAASGFTISSFGIHWVRQAPGKGLEWVAWIAPYGGYTYYADSVKGRFTISADTSKNTAYLQMNSLRAEDTAVYYCARSFFGYFDYWGQGTLVTVSS
VL: DIQMTQSPSSLSASVGDRVTITCRASQDVSNWVAWYQQKPGKAPKLLISYATSLYSGVPSRFSGSGSGTDFTLTISSLQPEDFATYYCQQHSNAPLTFGQGTKVEIKR
notes: Full-length IgG, human kappa
B8: 117_30DE (antibody, V domains shown)
VH: EVQLVESGGGLVQPGGSLRLSCAASGFTIDSFGIHWVRQAPGKGLEWVAWIAPYGGETYYADSVKGRFTISADTSKNTAYLQMNSLRAEDTAVYYCARSFFGYFDYWGQGTLVTVSS
VL: DIQMTQSPSSLSASVGDRVTITCRASQDVSNWVAWYQQKPGKAPKLLISYATSLYSGVPSRFSGSGSGTDFTLTISSLQPEDFATYYCQQHSNAPLTFGQGTKVEIKR
notes: full-length IgG, human kappa
B9: 117_57DE (antibody, V domains shown)
VH: EVQLVESGGGLVQPGGSLRLSCAASGFTISSFGIHWVRQAPGKGLEWVAWIAPYGGDEYYADSVKGRFTISADTSKNTAYLQMNSLRAEDTAVYYCARSFFGYFDYWGQGTLVTVSS
VL: DIQMTQSPSSLSASVGDRVTITCRASQDVSNWVAWYQQKPGKAPKLLISYATSLYSGVPSRFSGSGSGTDFTLTISSLQPEDFATYYCQQHSNAPLTFGQGTKVEIKR
notes: full-length IgG, human kappa
B10: 117 (IgG4) (antibody)
heavy: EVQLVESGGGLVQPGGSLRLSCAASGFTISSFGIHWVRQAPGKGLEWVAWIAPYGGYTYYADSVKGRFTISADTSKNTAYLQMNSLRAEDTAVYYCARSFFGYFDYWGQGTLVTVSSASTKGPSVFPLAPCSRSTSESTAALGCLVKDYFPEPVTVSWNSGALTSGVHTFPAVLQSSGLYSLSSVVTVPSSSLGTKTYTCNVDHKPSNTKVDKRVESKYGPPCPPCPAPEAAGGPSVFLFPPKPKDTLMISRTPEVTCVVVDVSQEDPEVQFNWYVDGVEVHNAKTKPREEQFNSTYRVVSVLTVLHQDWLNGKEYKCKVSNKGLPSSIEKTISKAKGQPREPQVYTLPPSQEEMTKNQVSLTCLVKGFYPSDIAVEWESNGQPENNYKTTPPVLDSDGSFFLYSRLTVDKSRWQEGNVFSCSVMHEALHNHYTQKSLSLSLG
light: DIQMTQSPSSLSASVGDRVTITCRASQDVSNWVAWYQQKPGKAPKLLISYATSLYSGVPSRFSGSGSGTDFTLTISSLQPEDFATYYCQQHSNAPLTFGQGTKVEIKRTVAAPSVFIFPPSDEQLKSGTASVVCLLNNFYPREAKVQWKVDNALQSGNSQESVTEQDSKDSTYSLSSTLTLSKADYEKHKVYACEVTHQGLSSPVTKSFNRGEC
notes: Human IgG4-S228P/F234A/L235A, kappa
B11: 117_30AA (IgG4) (antibody, V domains shown)
VH: EVQLVESGGGLVQPGGSLRLSCAASGFTIAAFGIHWVRQAPGKGLEWVAWIAPYGGYTYYADSVKGRFTISADTSKNTAYLQMNSLRAEDTAVYYCARSFFGYFDYWGQGTLVTVSS
VL: DIQMTQSPSSLSASVGDRVTITCRASQDVSNWVAWYQQKPGKAPKLLISYATSLYSGVPSRFSGSGSGTDFTLTISSLQPEDFATYYCQQHSNAPLTFGQGTKVEIKR
notes: Human IgG4-S228P-FALA, kappa
B12: 117_30DA (IgG4) (antibody, V domains shown)
VH: EVQLVESGGGLVQPGGSLRLSCAASGFTIDAFGIHWVRQAPGKGLEWVAWIAPYGGYTYYADSVKGRFTISADTSKNTAYLQMNSLRAEDTAVYYCARSFFGYFDYWGQGTLVTVSS
VL: DIQMTQSPSSLSASVGDRVTITCRASQDVSNWVAWYQQKPGKAPKLLISYATSLYSGVPSRFSGSGSGTDFTLTISSLQPEDFATYYCQQHSNAPLTFGQGTKVEIKR
notes: Human IgG4-S228P-FALA, kappa
B13: 117_30DE (IgG4) (antibody, V domains shown)
VH: EVQLVESGGGLVQPGGSLRLSCAASGFTIDSFGIHWVRQAPGKGLEWVAWIAPYGGETYYADSVKGRFTISADTSKNTAYLQMNSLRAEDTAVYYCARSFFGYFDYWGQGTLVTVSS
VL: DIQMTQSPSSLSASVGDRVTITCRASQDVSNWVAWYQQKPGKAPKLLISYATSLYSGVPSRFSGSGSGTDFTLTISSLQPEDFATYYCQQHSNAPLTFGQGTKVEIKR
notes: Human IgG4-S228P-FALA, kappa
B14: 117_31A (IgG4) (antibody)
heavy: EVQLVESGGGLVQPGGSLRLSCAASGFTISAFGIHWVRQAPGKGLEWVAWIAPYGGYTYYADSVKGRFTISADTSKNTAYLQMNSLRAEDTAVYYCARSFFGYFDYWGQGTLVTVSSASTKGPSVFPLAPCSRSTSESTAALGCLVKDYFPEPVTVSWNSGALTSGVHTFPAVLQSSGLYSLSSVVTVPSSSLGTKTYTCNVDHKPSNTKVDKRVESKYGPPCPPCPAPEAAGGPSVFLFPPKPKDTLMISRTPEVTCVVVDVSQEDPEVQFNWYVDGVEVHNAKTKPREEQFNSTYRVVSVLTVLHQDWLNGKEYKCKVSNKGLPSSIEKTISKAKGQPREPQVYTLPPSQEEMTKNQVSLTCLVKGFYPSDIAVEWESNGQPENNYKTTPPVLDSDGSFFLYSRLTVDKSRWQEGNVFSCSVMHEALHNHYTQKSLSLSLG
light: DIQMTQSPSSLSASVGDRVTITCRASQDVSNWVAWYQQKPGKAPKLLISYATSLYSGVPSRFSGSGSGTDFTLTISSLQPEDFATYYCQQHSNAPLTFGQGTKVEIKRTVAAPSVFIFPPSDEQLKSGTASVVCLLNNFYPREAKVQWKVDNALQSGNSQESVTEQDSKDSTYSLSSTLTLSKADYEKHKVYACEVTHQGLSSPVTKSFNRGEC
B15: 117_57D (IgG4) (antibody)
heavy: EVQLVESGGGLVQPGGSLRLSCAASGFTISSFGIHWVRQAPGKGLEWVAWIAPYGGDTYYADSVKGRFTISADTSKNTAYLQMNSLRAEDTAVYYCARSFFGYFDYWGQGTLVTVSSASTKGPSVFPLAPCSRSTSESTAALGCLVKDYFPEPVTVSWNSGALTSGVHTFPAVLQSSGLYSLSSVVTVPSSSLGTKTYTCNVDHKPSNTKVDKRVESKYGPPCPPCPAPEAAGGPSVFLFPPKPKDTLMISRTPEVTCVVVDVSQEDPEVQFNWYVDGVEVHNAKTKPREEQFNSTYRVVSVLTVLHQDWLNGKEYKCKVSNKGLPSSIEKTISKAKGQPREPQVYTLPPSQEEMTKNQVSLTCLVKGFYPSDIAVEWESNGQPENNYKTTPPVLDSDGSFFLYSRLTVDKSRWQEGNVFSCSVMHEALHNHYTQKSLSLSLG
light: DIQMTQSPSSLSASVGDRVTITCRASQDVSNWVAWYQQKPGKAPKLLISYATSLYSGVPSRFSGSGSGTDFTLTISSLQPEDFATYYCQQHSNAPLTFGQGTKVEIKRTVAAPSVFIFPPSDEQLKSGTASVVCLLNNFYPREAKVQWKVDNALQSGNSQESVTEQDSKDSTYSLSSTLTLSKADYEKHKVYACEVTHQGLSSPVTKSFNRGEC
notes: Human IgG4-S228P-FALA, kappa
B16: 117_57E (IgG4) (antibody)
heavy: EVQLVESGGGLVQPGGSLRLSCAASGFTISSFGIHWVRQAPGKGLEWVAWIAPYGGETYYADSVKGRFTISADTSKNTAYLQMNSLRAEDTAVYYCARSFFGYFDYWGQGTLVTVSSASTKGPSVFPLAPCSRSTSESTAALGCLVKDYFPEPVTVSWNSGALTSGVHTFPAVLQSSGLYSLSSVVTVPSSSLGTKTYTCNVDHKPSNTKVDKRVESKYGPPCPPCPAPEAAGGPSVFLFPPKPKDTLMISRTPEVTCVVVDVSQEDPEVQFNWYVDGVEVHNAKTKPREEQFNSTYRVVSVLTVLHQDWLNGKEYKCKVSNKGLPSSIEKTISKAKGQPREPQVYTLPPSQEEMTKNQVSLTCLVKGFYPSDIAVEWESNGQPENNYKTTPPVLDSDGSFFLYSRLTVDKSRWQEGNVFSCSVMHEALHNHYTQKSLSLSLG
light: DIQMTQSPSSLSASVGDRVTITCRASQDVSNWVAWYQQKPGKAPKLLISYATSLYSGVPSRFSGSGSGTDFTLTISSLQPEDFATYYCQQHSNAPLTFGQGTKVEIKRTVAAPSVFIFPPSDEQLKSGTASVVCLLNNFYPREAKVQWKVDNALQSGNSQESVTEQDSKDSTYSLSSTLTLSKADYEKHKVYACEVTHQGLSSPVTKSFNRGEC
notes: Human IgG4-S228P-FALA, kappa
B17: 117_DA57D (IgG4) (antibody, V domains shown)
VH: EVQLVESGGGLVQPGGSLRLSCAASGFTIDAFGIHWVRQAPGKGLEWVAWIAPYGGDTYYADSVKGRFTISADTSKNTAYLQMNSLRAEDTAVYYCARSFFGYFDYWGQGTLVTVSS
VL: DIQMTQSPSSLSASVGDRVTITCRASQDVSNWVAWYQQKPGKAPKLLISYATSLYSGVPSRFSGSGSGTDFTLTISSLQPEDFATYYCQQHSNAPLTFGQGTKVEIKR
B18: 117_DA57E (IgG4) (antibody, V domains shown)
VH: EVQLVESGGGLVQPGGSLRLSCAASGFTIDAFGIHWVRQAPGKGLEWVAWIAPYGGETYYADSVKGRFTISADTSKNTAYLQMNSLRAEDTAVYYCARSFFGYFDYWGQGTLVTVSS
VL: DIQMTQSPSSLSASVGDRVTITCRASQDVSNWVAWYQQKPGKAPKLLISYATSLYSGVPSRFSGSGSGTDFTLTISSLQPEDFATYYCQQHSNAPLTFGQGTKVEIKR
notes: Human IgG4-S228P-FALA, kappa

How the values were obtained:
[1] = biological target: T1, Recombinant His-tagged human CD36.ECD protein (Sino Biological) (human, UniProt P16671 30-439); test: BLI (Octet), antibody on AHC sensor, His-tagged hCD36.ECD in solution, 1:1 fit
T1 construct: Bought protein; also called hCD36.ECD; hCD36; not shown: His tag
Procedure: BLI assay materials and method: Kinetic rate constants, ka and kd, for binding of the anti-CD36 antibodies to human CD36 were measured by Bio-Layer Interferometry (BLI) (ForteBio Octet RED96). […] Rate constants were calculated by curve fitting analyses (1:1 Langmuir model) of binding response with a 2.5-minute association and 5-minute dissociation interaction time.

[2] = biological target: T2, rhesus CD36-His overexpressed on stable F293 cells (rhesus, UniProt P16671 2-472 (human entry)); test: flow cytometry, F293 cells overexpressing rhesus CD36
T2 construct: Gene segment from Sino Biological; also called F293/rhesusCD36; not shown: His tag
Description: (§1) After washing with FACS buffer (2% FBS in PBS), the cells were stained with anti-human IgG-Alexa Fluor 647 and analyzed by Attune NxT Flow Cytometer (Thermo Scientific).

[3] = biological target: T3, mouse CD36-His overexpressed on stable F293 cells (mouse, UniProt Q08857 1-472); test: flow cytometry, F293 cells overexpressing mouse CD36
T3 construct: Gene segment from Sino Biological; also called F293/mCD36; mCD36; not shown: His tag
Description: as §1

[4] = biological target: T4, full-length human CD36-Flag overexpressed on stable F293 cells (human, UniProt P16671 2-472); test: cell-based or functional assay
[5] = biological target: T4, full-length human CD36-Flag …; test: flow cytometry, F293 cells overexpressing human CD36
Description: as §1

T2 sequence (P16671 other isoform, or with tags, fused parts or gaps): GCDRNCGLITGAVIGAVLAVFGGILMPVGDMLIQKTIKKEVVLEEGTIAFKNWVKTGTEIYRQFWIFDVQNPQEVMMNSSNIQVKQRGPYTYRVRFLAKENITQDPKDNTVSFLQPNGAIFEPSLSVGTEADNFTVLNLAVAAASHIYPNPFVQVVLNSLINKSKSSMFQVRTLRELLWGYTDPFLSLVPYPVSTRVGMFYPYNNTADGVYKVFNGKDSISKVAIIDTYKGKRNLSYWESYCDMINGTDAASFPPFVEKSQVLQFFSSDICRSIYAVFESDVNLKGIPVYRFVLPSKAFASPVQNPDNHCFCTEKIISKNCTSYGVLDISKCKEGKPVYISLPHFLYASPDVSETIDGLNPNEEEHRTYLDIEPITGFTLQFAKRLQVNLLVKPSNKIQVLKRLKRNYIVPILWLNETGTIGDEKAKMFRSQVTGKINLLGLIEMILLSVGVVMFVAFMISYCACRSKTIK
T4 sequence (P16671 2-472): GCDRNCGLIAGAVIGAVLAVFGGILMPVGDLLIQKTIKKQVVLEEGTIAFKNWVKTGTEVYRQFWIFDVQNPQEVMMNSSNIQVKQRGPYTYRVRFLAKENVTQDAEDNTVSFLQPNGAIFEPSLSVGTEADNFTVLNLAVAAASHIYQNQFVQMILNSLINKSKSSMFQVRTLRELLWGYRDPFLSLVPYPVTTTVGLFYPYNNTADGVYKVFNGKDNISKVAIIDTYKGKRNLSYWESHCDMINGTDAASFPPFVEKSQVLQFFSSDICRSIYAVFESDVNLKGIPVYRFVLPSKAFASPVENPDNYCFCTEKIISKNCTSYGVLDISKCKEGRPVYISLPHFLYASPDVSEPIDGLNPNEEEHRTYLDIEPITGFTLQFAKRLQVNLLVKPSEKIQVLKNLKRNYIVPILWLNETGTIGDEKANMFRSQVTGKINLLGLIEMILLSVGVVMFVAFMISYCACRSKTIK
T1 sequence (P16671 30-439 limits assumed): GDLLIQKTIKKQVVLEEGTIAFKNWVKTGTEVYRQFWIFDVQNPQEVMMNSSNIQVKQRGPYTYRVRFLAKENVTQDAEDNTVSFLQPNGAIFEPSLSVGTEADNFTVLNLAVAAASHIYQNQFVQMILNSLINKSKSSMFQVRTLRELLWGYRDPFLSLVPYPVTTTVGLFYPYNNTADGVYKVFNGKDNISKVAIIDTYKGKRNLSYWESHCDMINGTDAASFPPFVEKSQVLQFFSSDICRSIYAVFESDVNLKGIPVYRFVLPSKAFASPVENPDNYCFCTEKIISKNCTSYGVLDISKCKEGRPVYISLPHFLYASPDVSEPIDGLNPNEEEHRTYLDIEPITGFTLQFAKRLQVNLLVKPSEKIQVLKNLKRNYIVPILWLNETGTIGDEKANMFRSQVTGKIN
T3 sequence (Q08857 whole entry): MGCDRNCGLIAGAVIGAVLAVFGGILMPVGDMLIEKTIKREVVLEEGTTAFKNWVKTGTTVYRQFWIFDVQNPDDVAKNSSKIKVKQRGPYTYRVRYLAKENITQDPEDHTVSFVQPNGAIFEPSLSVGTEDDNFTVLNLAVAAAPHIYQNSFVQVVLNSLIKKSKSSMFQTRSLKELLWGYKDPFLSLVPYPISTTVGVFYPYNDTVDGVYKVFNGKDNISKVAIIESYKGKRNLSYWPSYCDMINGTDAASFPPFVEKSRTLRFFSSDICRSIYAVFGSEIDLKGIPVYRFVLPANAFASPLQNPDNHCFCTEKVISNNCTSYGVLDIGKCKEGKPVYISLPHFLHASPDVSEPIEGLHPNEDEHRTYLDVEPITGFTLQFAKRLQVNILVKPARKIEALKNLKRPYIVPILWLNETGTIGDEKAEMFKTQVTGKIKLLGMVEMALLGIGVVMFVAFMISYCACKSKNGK

| Binder | Kd [1] | koff [1] | kon [1] | EC50 [2] | EC50 [3] | oxLDL uptake IC50 (nM), F293/hCD36 [4] | EC50 [5] |
| --- | --- | --- | --- | --- | --- | --- | --- |
| B1 | 4.79 nM and 6.72 nM | 0.00213 s⁻¹ and 0.00235 s⁻¹ | 445000 M⁻¹ s⁻¹ and 350000 M⁻¹ s⁻¹ | – | – | – | – |
| B2 | 4.05 nM | 0.00182 s⁻¹ | 449000 M⁻¹ s⁻¹ | – | – | – | – |
| B3 | 4.16 nM | 0.00407 s⁻¹ | 978000 M⁻¹ s⁻¹ | – | – | – | – |
| B4 | 4.69 nM | 0.00175 s⁻¹ | 373000 M⁻¹ s⁻¹ | – | – | – | – |
| B5 | 4.93 nM | 0.00182 s⁻¹ | 370000 M⁻¹ s⁻¹ | – | – | – | – |
| B6 | 4.27 nM | 0.00155 s⁻¹ | 364000 M⁻¹ s⁻¹ | – | – | – | – |
| B7 | – | – | – | 0.886 µg/mL and 0.582 µg/mL | 0.46 µg/mL and 0.361 µg/mL | 0.702 nM | 0.18 µg/mL and 0.123 µg/mL |
| B8 | – | – | – | 0.403 µg/mL | 0.342 µg/mL | 0.299 nM | 0.107 µg/mL |
| B9 | – | – | – | 0.529 µg/mL | 0.447 µg/mL | – | 0.129 µg/mL |
| B10 | 6.49 nM | 0.0025 s⁻¹ | 386000 M⁻¹ s⁻¹ | – | – | – | – |
| B11 | 5.74 nM | 0.00282 s⁻¹ | 491000 M⁻¹ s⁻¹ | – | – | – | – |
| B12 | 3.91 nM | 0.00133 s⁻¹ | 339000 M⁻¹ s⁻¹ | – | – | – | – |
| B13 | 3.09 nM | 0.000981 s⁻¹ | 317000 M⁻¹ s⁻¹ | – | – | – | – |
| B14 | 4.32 nM | 0.00205 s⁻¹ | 475000 M⁻¹ s⁻¹ | – | – | – | – |
| B15 | 4.96 nM | 0.00167 s⁻¹ | 336000 M⁻¹ s⁻¹ | – | – | – | – |
| B16 | 5.28 nM | 0.00171 s⁻¹ | 325000 M⁻¹ s⁻¹ | – | – | – | – |
| B17 | 2.64 nM | 0.000838 s⁻¹ | 317000 M⁻¹ s⁻¹ | – | – | – | – |
| B18 | 2.52 nM | 0.000803 s⁻¹ | 319000 M⁻¹ s⁻¹ | – | – | – | – |
